# Earlier results as cited in US20160114039A1, “TREATMENT OF POLYPOIDAL CHOROIDAL VASCULOPATHY” (BAYER HEALTHCARE LLC, priority 2013, published 2016).
# Tested on: symptomatic PCV
# Conditions: sixty-one Asian patients with symptomatic PCV; primary end point assessed at month 6
molecule,measurement,value
"ranibizumab (antibody, chains of the INN, looked up, V domains shown, Fab, anti-VEGF agent ranibizumab (Lucentis)) VH: EVQLVESGGGLVQPGGSLRLSCAASGYDFTHYGMNWVRQAPGKGLEWVGWINTYTGEPTYAADFKRRFTFSLDTSKSTAYLQMNSLRAEDTAVYYCAKYPYYYGTSHWYFDVWGQGTLVTVSS VL: DIQLTQSPSSLSASVGDRVTITCSASQDISNYLNWYQQKPGKAPKVLIYFTSSLHSGVPSRFSGSGSGTDFTLTISSLQPEDFATYYCQQYSTVPWTFGQGTKVEIK",complete polyp regression,28.6%
